Publication PMC8363759 (Cell reports, 2021)

Columns and labels:
h5MP1 (WT) = molecular target: T1, h5MP1 (WT) (human, UniProt Q9Y6E2 1-419); experiment: ITC
T1 sequence (looked up): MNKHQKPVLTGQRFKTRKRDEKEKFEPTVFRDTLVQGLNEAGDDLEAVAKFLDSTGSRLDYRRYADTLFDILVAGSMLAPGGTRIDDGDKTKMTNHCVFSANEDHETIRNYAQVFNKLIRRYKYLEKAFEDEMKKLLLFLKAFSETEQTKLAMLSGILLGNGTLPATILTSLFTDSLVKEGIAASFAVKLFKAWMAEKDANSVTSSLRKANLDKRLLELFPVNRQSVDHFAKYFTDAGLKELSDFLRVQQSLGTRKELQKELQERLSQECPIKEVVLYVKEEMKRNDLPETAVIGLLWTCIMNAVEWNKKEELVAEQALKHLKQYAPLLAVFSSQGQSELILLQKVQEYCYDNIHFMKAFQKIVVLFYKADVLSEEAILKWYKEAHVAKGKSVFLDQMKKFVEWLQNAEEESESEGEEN

h5MP1-BN1 = molecular target: T2, h5MP1-BN1 (human, UniProt Q9Y6E2 1-419, K380Q | K383Q | H386Q | K389Q | K391Q); experiment: ITC
T2 sequence (looked up): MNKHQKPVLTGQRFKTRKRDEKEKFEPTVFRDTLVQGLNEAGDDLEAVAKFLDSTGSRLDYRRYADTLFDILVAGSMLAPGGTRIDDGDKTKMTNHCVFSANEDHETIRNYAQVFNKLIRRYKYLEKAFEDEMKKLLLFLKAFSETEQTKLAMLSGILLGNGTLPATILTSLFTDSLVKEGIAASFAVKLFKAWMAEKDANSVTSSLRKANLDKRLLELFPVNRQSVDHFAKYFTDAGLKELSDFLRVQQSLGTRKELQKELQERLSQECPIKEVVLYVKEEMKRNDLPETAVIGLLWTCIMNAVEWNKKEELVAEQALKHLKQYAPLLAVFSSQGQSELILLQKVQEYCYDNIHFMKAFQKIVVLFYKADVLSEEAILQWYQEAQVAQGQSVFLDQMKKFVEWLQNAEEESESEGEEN

GST-h5MP1 = molecular target: T3, GST-h5MP1 (human, UniProt Q9Y6E2 1-419); experiment: pull-down
T3 sequence (looked up): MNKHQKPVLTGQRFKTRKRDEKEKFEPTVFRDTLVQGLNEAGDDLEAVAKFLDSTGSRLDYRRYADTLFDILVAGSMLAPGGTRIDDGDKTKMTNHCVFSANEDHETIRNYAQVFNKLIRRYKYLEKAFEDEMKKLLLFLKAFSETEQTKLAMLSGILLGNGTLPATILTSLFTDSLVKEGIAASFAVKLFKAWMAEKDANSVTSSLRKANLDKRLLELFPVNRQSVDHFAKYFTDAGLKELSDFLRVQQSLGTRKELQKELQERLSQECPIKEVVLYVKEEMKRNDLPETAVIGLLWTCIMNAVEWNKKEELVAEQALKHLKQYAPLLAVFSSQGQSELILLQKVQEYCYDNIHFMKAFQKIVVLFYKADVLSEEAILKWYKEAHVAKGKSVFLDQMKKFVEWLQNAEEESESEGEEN

B1: heIF2β_(53-136) (domain or fragment, human, UniProt P20042 53-136, looked up)
chain: DLEADEEDTRKKDASDDLDDLNFFNQKKKKKKTKKIFDIDEAEEGVKDLKIESDVQEPTEPEDDLDIMLGNKKKKKKNVKFPDE
h5MP1 (WT)
  binding result: binds
h5MP1-BN1
  binding result: binds

B2: GB-heIF3c_(20-102) (domain or fragment, human, UniProt Q99613 20-102, looked up)
chain: EELVTKPVGGNYGKQPLLLSEDEEDTKRVVRSAKDKRFEELTNLIRTIRNAMKIRDVTKCLEEFELLGKAYGKAKSIVDKEGV
GST-h5MP1
  binding result: binds
